Measurements taken from patent US11766414B2, “Compositions, delivery systems, and methods useful in tumor therapy” (Indi Molecular, Inc., priority 2020, dated 2023).
Starred links: 1 amine or outer side, 2 acyl side, 3 side chain; linkers in the order of their positions; H or OH if unused. Positions of bridges follow the written chain, without caps; N, C: chain ends. Non-standard residues stand in square brackets, D forms with d. Residues, ends and D or L forms follow the SMILES beside them. Triazole bridges read from a SMILES are 1,4-linked. *: point of attachment. DOTA = O=C(O)CN1CCN(CC(=O)O)CCN(CC(=O)*)CCN(CC(=O)O)CC1; Pteroyl = Nc1nc2ncc(CNc3ccc(C(=O)*)cc3)nc2c(=O)[nH]1; Butanoyl(4-(4-I-phenyl)) = O=C(CCCc1ccc(I)cc1)*; Butanoyl(4-(4-MePh)) = Cc1ccc(CCCC(=O)*)cc1; Lys(N3) = [N-]=[N+]=NCCCC[C@H](N)C(=O)O; γGlu = O=C(O)[C@H](CCC(=O)[*:2])N[*:1]; AEEEA = NCCOCCOCCOCC(=O)O; Pra = C#CC[C@H](N)C(=O)O

Columns and labels:
[1] = test system: OVCAR3 (FOLR1+) tumor bearing NSG mice; conditions: mouse, in vivo
Description: Female, 7-week-old NSG mice were housed under pathogen-free conditions. Water and food were provided ad libitum. To create mice with FOLR1+ ovarian xenograft tumors, mice were injected subcutaneously with OVCAR3 cells (1×10^7 cells per mouse) resuspended in 50% Matrigel in PBS into the shoulder region. Tumor growth was monitored by caliper measurements. OVCAR3 is a human ovarian adenocarcinoma known to over-express FOLR1.
^68Ga PET imaging was used to study in vivo biodistribution of heterobiligands in non-tumor bearing (healthy) mice and OVCAR3 tumor bearing mice. 100-200 μCi of [^68Ga]DOTA-labeled heterobiligand was administered intravenously (i.v.) via the tail vein of each mouse. […]
Evaluation of a folate-hshta (SEQ ID NO:6) Nterm heterobiligand bearing both an albumin binder and DOTA chelator in PET was a priority, given that DOTA can accommodate both ^68Ga for imaging and ^177Lu for radiotherapy. […] The time-course biodistribution of ^68Ga-labeled folate-hshta-PEG3-Lys(MPBA)-Lys(DOTA) (SEQ ID NO:6) (compound #2809) was calculated to quantify the uptake in major organs including the tumor (FIG. 17). […] Larger tumors (490 mm^3) were also evaluated with the ^68Ga-chelated PET probe.
Biodistribution was initially evaluated by PET imaging, as the time frame for a significant portion of clearance is roughly similar to the time frame of PET imaging experiments. […]

mouse plasma proteins = test: Plasma protein binding, CD-1 mouse plasma; type: in vitro ADME; conditions: CD-1 mouse plasma
Description: (§1) HTD 96 a/b regenerated cellulose membrane strips with mass cutoff of 12-14 kDa were soaked in ultra-pure water at room temperature for 1 hour. Each swelled membrane was then soaked in 20:80 ethanol:water for 20 minutes.
(§2) Just prior to the experiment, the membranes were re-soaked in ultra-pure water. Plasma was prepared by thawing under cold water. The plasma was centrifuged to remove any clots and pH was adjusted to 7.0-8.0. Test articles and control compounds were diluted to 2 μM. The dialysis device was loaded by transferring 150 μL of the test article (in triplicate) to the donor side. The dialysis device was placed in a humidified incubator at 37° C. with 5% CO2 in a shaking platform that rotated slowly for 4 hours. After incubation, 50 μL of the supernatant was taken from both sides and analyzed by LC-MS/MS.

human plasma proteins = test: Plasma protein binding, human plasma; type: in vitro ADME; conditions: human plasma
Description: as §1, §2

[2] = Plasma protein binding, CD-1 mouse plasma; type: in vitro ADME; conditions: CD-1 mouse plasma; read-out: Plasma % Bound, Mu (converted)
Description: as §1, §2

[3] = Plasma stability, human plasma
Description: (§3) Plasma was thawed in a 37° C. water bath. Residual clots were removed via centrifugation at 4000 rpm for 5 minutes. The pH of the plasma was adjusted to 7.4 if required. Test articles were diluted to 100 μM by diluting a 1 mM working solution (in DMSO) with 45% methanol in water. To 98 μL of plasma was added 2 μL of the 100 μM solution, resulting in 2 μM final concentration of the test article. Samples were incubated at 37° C. in a water bath. At the indicated time points (0, 10, 30, 60, 120 minutes) 100 μL of 4% H3PO4 was added followed by 800 μL of stop solution (200 ng/mL tolbutamide and 200 ng/mL labetalol in 100% acetonitrile). The samples were centrifuged and the plasma protein-free supernatant (100 μL) was subjected to LC-MS/MS analysis.

[4] = Plasma protein binding, human plasma; type: in vitro ADME; conditions: human, plasma
Description: as §1, §2

human recombinant NEP = human recombinant NEP (Homo sapiens, UniProt P08473); test: NEP enzymatic cleavage assay (MALDI, HPLC); type: biochemical; conditions: for cleavage of the test article: 1 nM NEP, MALDI-TOF MS; for in vitro Assay Data (NEP assay): Table 2
Chain of human recombinant NEP (P08473 whole entry): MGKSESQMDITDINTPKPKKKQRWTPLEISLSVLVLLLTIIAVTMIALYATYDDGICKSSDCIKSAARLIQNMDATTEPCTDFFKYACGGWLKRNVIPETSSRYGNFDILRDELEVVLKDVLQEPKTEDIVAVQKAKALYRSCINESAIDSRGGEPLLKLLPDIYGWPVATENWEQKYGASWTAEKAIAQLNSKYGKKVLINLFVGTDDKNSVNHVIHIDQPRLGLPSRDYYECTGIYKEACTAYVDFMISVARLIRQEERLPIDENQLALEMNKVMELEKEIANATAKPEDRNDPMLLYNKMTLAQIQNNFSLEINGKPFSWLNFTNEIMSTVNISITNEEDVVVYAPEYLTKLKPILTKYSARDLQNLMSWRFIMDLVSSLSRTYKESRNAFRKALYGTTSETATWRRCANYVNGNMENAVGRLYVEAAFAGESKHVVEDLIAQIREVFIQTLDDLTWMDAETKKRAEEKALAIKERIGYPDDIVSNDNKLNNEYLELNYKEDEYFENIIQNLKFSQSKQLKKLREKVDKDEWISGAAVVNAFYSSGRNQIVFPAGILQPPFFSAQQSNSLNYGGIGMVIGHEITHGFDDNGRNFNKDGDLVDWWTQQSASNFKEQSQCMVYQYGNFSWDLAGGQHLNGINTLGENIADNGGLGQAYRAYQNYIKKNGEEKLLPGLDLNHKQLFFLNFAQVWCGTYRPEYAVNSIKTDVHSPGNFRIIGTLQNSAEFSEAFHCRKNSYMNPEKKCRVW
Description: In order to test the susceptibility of GFK and MVK linkers to NEP-mediated cleavage, the peptide (Folate-hshta-Lys(MPBA)-Gly-Phe-Lys(DOTA) (SEQ ID NO:6)) was incubated with human recombinant NEP and analyzed the solution for the presence of cleaved adducts. MALDI was utilized to monitor the cleavage of a PCC heterobiligand that contains a NEP protease recognizable sequence (G-F-K). The PCC concentration was constant and the NEP concentration was titrated down from 10 nM to 1 nM, 0.1 nM, 0.01 nM, and no NEP. The NEP-mediated cleaved adduct was identified by mass. 10 μM PCC containing the GFK linker was combined with varying amounts of NEP. […] Below 0.1 nM no cleavage was observed. • Folate-hshta-Lys(MPBA)-Gly-Phe-Lys(DOTA) (SEQ ID NO:6) • Molecular weight 2231.42
The NEP-mediated cleavage was also monitored by HPLC. In agreement with the MALDI spectra, the HPLC chromatograms show depletion of the parent brush-border heterobiligand (retention time 17.1 minutes), dose-dependent on the amount of NEP spiked into the sample (10 nM, 1 nM, 0.1 nM, 0.01 nM, and no NEP). An appearance of a new peak (retention time 16.5 minutes) in concert with the depletion of the starting material is presumed to be the cleaved folate-containing peptide.
In order to test the specificity of NEP, a non-cleavable linker (PEG3) was also assayed.
To reduce the radioactive dose to the kidney, Indi ^177Lu-7327 was constructed to incorporate a GFK linker that is susceptible to cleavage by enzymes found predominately in the kidney's brush border. These enzymes cleave off the radionuclide-chelator complex, which is quickly eliminated by the kidney for excretion in the urine. The zinc metalloprotease neprilysin (NEP) is expressed with high abundance in the kidney. […] To confirm NEP-mediated cleavage of the GFK linker in Indi 7327, the peptide was incubated with recombinant human NEP at 37° C. for 1 h and analyzed by matrix-assisted laser desorption/ionization mass spectrometry (MALDI-MS) for the evolution of cleaved adducts (FIG. 42). […] The expected cleaved adduct (mass: 1283.16 m/z) appears in the samples containing 10, 1.0, and 0.1 nM NEP. […] Below 0.1 nM NEP, no cleavage was observed. In addition to confirming the selectivity of NEP for the GFK linker, it is also important to note that the remaining portions of the Indi 7327 were impervious to the enzyme.

[5] = Plasma stability, CD-1 mouse plasma
Description: as §3

human serum albumin = human serum albumin (Homo sapiens, UniProt P02768); conditions: read-out: affinity for human serum albumin; cited from earlier work
[6] = human plasma, read-out: Plasma % Bound, Hu (converted)

Compound | fraction unbound [2] | half-life [3] | fraction unbound [4, 6] | cleavage of the test article (human recombinant NEP) | in vitro Assay Data (NEP assay) (human recombinant NEP) | half-life [5] | further results
C[C@H](O)[C@H]1NC(=O)[C@@H](Cc2cnc[nH]2)NC(=O)[C@@H](CO)NC(=O)[C@@H](Cc2cnc[nH]2)NC(=O)[C@@H](NC(=O)CC[C@H](NC(=O)c2ccc(NCc3cnc4nc(N)[nH]c(=O)c4n3)cc2)C(=O)O)Cc2cn(nn2)CCCC[C@@H](C(=O)NCC(=O)N[C@@H](Cc2ccccc2)C(=O)N[C@@H](CCCCNC(=O)CN2CCN(CC(=O)O)CCN(CC(=O)O)CCN(CC(=O)O)CC2)C(=O)O)NC(=O)[C@@H](C)NC1=O [Indi ^68Ga-7327, metal not drawn] ({Pteroyl-γGlu}-[Pra][dH][dS][dH][dT][dA][Lys(N3)]GFK(DOTA)-OH; triazole 1-7) | – | – | – | – | – | – | kidney uptake (PET) [1]: significant reduction in kidney uptake
C[C@@H](O)[C@@H]1NC(=O)[C@H](CCCCN)NC(=O)[C@@H](Cc2c[nH]c3ccccc23)NC(=O)[C@H](Cc2ccccc2)NC(=O)[C@@H](NC(=O)[C@H](N)Cc2ccccc2)CSSC[C@@H](C(=O)N[C@H](CO)[C@@H](C)O)NC1=O [Octreotide Acetate, reference compound] | – | – | – | – | – | – | Plasma % Bound, Mu (mouse plasma proteins): 62.36%; Plasma protein binding % Recovery, Mu (mouse plasma proteins): 84.5%; Plasma % Bound, Hu (human plasma proteins): 59.41%; Plasma protein binding % Recovery, Hu (human plasma proteins): 84.3%
C[C@H](O)[C@H]1NC(=O)[C@@H](Cc2c[nH]cn2)NC(=O)[C@@H](CO)NC(=O)[C@@H](Cc2c[nH]cn2)NC(=O)[C@@H](NC(=O)CC[C@H](NC(=O)c2ccc(NCc3cnc4nc(N)[nH]c(=O)c4n3)cc2)C(=O)O)Cc2cn(nn2)CCCC[C@@H](C(=O)N[C@@H](CCCCNC(=O)CCCc2ccc(I)cc2)C(=O)NCC(=O)N[C@@H](Cc2ccccc2)C(=O)N[C@@H](CCCCNC(=O)CN2CCN(CC(=O)O)CCN(CC(=O)O)CCN(CC(=O)O)CC2)C(=O)O)NC(=O)[C@@H](C)NC1=O [Compound #1307, folate-hshta-Lys(IPBA)-Gly-Phe-Lys(DOTA)] ({Pteroyl-γGlu}-[Pra][dH][dS][dH][dT][dA][Lys(N3)]K(Butanoyl(4-(4-I-phenyl)))GFK(DOTA)-OH; triazole 1-7) | 0.004 | > 4.82 h | 0.005 | complete | Cleavage of -G-F-K- | > 4.82 h | –
CSCC[C@H](NC(=O)[C@H](CCCCNC(=O)CCCc1ccc(I)cc1)NC(=O)[C@@H]1CCCCn2cc(nn2)C[C@H](NC(=O)CC[C@H](NC(=O)c2ccc(NCc3cnc4nc(N)[nH]c(=O)c4n3)cc2)C(=O)O)C(=O)N[C@H](Cc2c[nH]cn2)C(=O)N[C@H](CO)C(=O)N[C@H](Cc2c[nH]cn2)C(=O)N[C@H]([C@H](C)O)C(=O)N[C@H](C)C(=O)N1)C(=O)N[C@H](C(=O)N[C@@H](CCCCNC(=O)CN1CCN(CC(=O)O)CCN(CC(=O)O)CCN(CC(=O)O)CC1)C(=O)O)C(C)C [compound 1306, folate-hshta-Lys(IPBA)-M-V-Lys(DOTA)] ({Pteroyl-γGlu}-[Pra][dH][dS][dH][dT][dA][Lys(N3)]K(Butanoyl(4-(4-I-phenyl)))MVK(DOTA)-OH; triazole 1-7) | 0.0288 | > 4.82 h | 0.0265 | substantial | Cleavage of -M-V-K- | > 4.82 h | fraction unbound ([4]; species not given, read-out: bound to plasma (converted)): ~0.03
GI48-GA: albumin-binding fragment of protein G from Streptococcus strain GI48, SEQ ID NO:33 (LAEAKVLANRELDKYGVSDYYKNLINNAKTVEGVKALIDEILAA) | – | – | – | – | – | – | Kd (human serum albumin): 1 nM
Cc1ccc(CCCC(=O)NCCCC[C@H](NC(=O)COCCOCCOCCNC(=O)[C@@H]2CCCCn3cc(nn3)C[C@H](NC(=O)CC[C@H](NC(=O)c3ccc(NCc4cnc5nc(N)[nH]c(=O)c5n4)cc3)C(=O)O)C(=O)N[C@H](Cc3c[nH]cn3)C(=O)N[C@H](CO)C(=O)N[C@H](Cc3c[nH]cn3)C(=O)N[C@H]([C@H](C)O)C(=O)N[C@H](C)C(=O)N2)C(=O)N[C@@H](CCCCNC(=O)CN2CCN(CC(=O)O)CCN(CC(=O)O)CCN(CC(=O)O)CC2)C(N)=O)cc1 [^68Ga-chelated compound #2809, metal not drawn] ({Pteroyl-γGlu}-[Pra][dH][dS][dH][dT][dA][Lys(N3)][AEEEA]K(Butanoyl(4-(4-MePh)))K(DOTA)-NH2; triazole 1-7) | – | – | – | – | – | – | accumulation within the tumor ([1]; iv, 200 uCi, 4 h): ~2.2 % of the injected dose/cc
